# B1: antibody-drug conjugate (1): humanized anti-hTROP2 antibody (SEQ ID NO: 1 residues 20-470, SEQ ID NO: 2 residues 21-234) conjugated to the exatecan-derivative drug-linker via a thioether bond (conjugate, chains of the INN, looked up)
# VH: QVQLVQSGAEVKKPGASVKVSCKASGYTFTTAGMQWVRQAPGQGLEWMGWINTHSGVPKYAEDFKGRVTISADTSTSTAYLQLSSLKSEDTAVYYCARSGFGSSYWYFDVWGQGTLVTVSS
# VL: DIQMTQSPSSLSASVGDRVTITCKASQDVSTAVAWYQQKPGKAPKLLIYSASYRYTGVPSRFSGSGSGTDFTLTISSLQPEDFAVYYCQQHYITPLTFGQGTKLEIK
# modifications: exatecan-derivative drug-linker
# Tests used:
# [1] = system: patient-derived xenograft (PDX) model; test: Anti-tumor effect (TGI) in patient-derived xenograft models, 21 days after administration; assay type: in vivo, nu/nu mice; conditions: for TGI (%): 10 mg/kg tail vein, 21 days after administration; for Proportion of PDX models showing TGI of 75% or more: TGI at 21 days
# Protocol: Mice: Female nu/nu mice (Envigo) aged 5-8 weeks were acclimatized under SPF conditions for 3 days or more prior to experimental use. Mice were fed with sterile solid feed (Teklad2919, Envigo) and given reverse osmosis membrane-treated water (containing 2 ppm chlorine).
# Measurements and Calculation formula: long and short diameters of tumors were measured twice a week with an electronic digital caliper (CD-6PMX, Mitutoyo Corp.) and tumor volume (mm^3) was calculated using the following calculation formula: Tumor volume (mm^3)=0.52×Long diameter (mm)×[Short diameter (mm)]^2
# Tumor fragments from each cancer patient were subcutaneously implanted into mice and passaged. The obtained tumors were used to subcutaneously implant tumor fragments, which were cut to approximately 5×5×5 mm^3, into the left abdomen of the female nu/nu mice, thereby each patient-derived xenograft (PDX) model was created. Mice were randomly grouped when the mean transplanted tumor volume reached 150 to 300 mm^3 (Day 0). On the same day as grouping, the antibody-drug conjugate (1) was administered into the tail vein at a dose of 10 mg/kg. A formulation buffer was similarly administered at a volume of 10 mL/kg as a negative control. Tumor growth inhibition rates (TGI (%)) were calculated according to the following calculation formula using each tumor volume 21 days after administration (Table 1). Tumor growth inhibition rate (%)=100×(1−Tf/mean Cf) • Tf: tumor volume 21 days after administration of antibody-drug conjugate (1) • mean Cf: arithmetic mean tumor volume 21 days after administration in negative control group mice
# Data on the amount of gene expression in each PDX model used in Example 2 were obtained and normalized at Champions Oncology, Inc., thereby a RPKM value was obtained. To the RPKM value, 1 was added, and the sum was transformed to a logarithmic (log2) to obtain a log2[RPKM+1] value (Table 2). The log2[RPKM+1] value was used to analyze the relationship between the anti-tumor activity of antibody-drug conjugate (1) in each PDX model (Table 1) and the amount of expression of the hTROP2 gene and the SLFN11 gene. […] When TGI was 80% or more, the prediction rate decreased to an order of 60% only when the log2[RPKM+1] value of the hTROP2 gene exceeded 7.5 and the log2[RPKM+1] value of the SLFN11 gene exceeded 1.0 and was less than or equal to 2.
# [2] = system: relapsed and advanced non-small cell lung cancer; test: Phase 1 study, dose escalation part, maximum tumor change rate; assay type: in vivo, human
# Protocol: In a dose escalation part of a Phase 1 study for patients with relapsed and advanced non-small cell lung cancer, the antibody-drug conjugate (1) was administered intravenously once every three weeks until unacceptable toxicity or worsening of the pathological condition was observed. The dose-limiting toxicity was determined in Cycle 1 (Days 1-21). Tumor sampling was performed after entry into the clinical study following the first dose. Note that a minus value in the maximum tumor change rate means that the tumor has been reduced by administration of antibody-drug conjugate (1).
# Gene expression data of each patient were obtained by EdgeSeq after preparing a section from a formalin-fixed paraffin-embedded specimen of tumor tissue of each patient prior to antibody-drug conjugate (1) administration, and cutting out a tumor site by laser microdissection. The obtained count data were normalized by the Median normalization method, thereby the amount of expression of each gene was obtained. All the above tests were performed at HTG Molecular Diagnostics, Inc.
# To the Median Normalized Count (MNC) value, after being obtained and normalized at HTG Molecular Diagnostics, Inc., 1 was added, and the sum was transformed to a logarithmic (log2) to obtain a log2[MNC+1] value (Table 15). The log2[MNC+1] value was used to analyze the relationship between the anti-tumor activity of antibody-drug conjugate (1) in each patient (Table 14) and the amount of expression of the hTROP2 gene and the SLFN11 gene. When all of the evaluated patients were grouped into groups having at least a certain amount of expression of the hTROP2 and SLFN11 genes (Table 16), it was shown that the proportion of patients showing at least a certain drug efficacy (maximum tumor change rate of 0% or less) is higher as the hTROP2 gene expression and the SLFN11 gene expression increases (Table 17). In the absence of grouping by SLFN11 gene expression, the proportion of patients showing the maximum tumor change rate of 0% or less was not more than 75 to 80%. […] For example, when the log2[MNC+1] value of the hTROP2 gene exceeds 12 and the log2[MNC+1] value of the SLFN11 gene exceeds 11.5, the proportion of patients in which the maximum tumor change rate is 0% or less is about 80% to 100%.
molecule,measurement,setting,value
B1,TGI (%),"[1]; PDX model #1, Breast",98.1%
same,TGI (%),"[1]; PDX model #2, Lung",77.3%
same,TGI (%),"[1]; PDX model #3, Cholangiocarcinoma",48.0%
same,TGI (%),"[1]; PDX model #4, Pancreatic",48.5%
same,TGI (%),"[1]; PDX model #5, Colorectal",65.0%
same,TGI (%),"[1]; PDX model #6, Breast",95.5%
same,TGI (%),"[1]; PDX model #7, Breast",94.7%
same,TGI (%),"[1]; PDX model #8, Head and neck",55.6%
same,TGI (%),"[1]; PDX model #9, Head and neck",99.1%
same,TGI (%),"[1]; PDX model #10, Lung",97.7%
same,TGI (%),"[1]; PDX model #11, Lung",95.4%
same,TGI (%),"[1]; PDX model #12, Breast",95.8%
same,TGI (%),"[1]; PDX model #13, Lung",70.0%
same,TGI (%),"[1]; PDX model #14, Breast",90.1%
same,TGI (%),"[1]; PDX model #15, Cholangiocarcinoma",61.2%
same,TGI (%),"[1]; PDX model #16, Colorectal",52.7%
same,TGI (%),"[1]; PDX model #17, Breast",62.6%
same,TGI (%),"[1]; PDX model #18, Lung",18.4%
same,TGI (%),"[1]; PDX model #19, Lung",50.3%
same,Proportion of PDX models showing TGI of 75% or more,"[1]; log2[RPKM+1]: hTROP2 >6.5, SLFN11 >1, 10 models",60%
same,Proportion of PDX models showing TGI of 75% or more,"[1]; log2[RPKM+1]: hTROP2 >6.5, SLFN11 >2, 6 models",83%
same,Proportion of PDX models showing TGI of 75% or more,"[1]; log2[RPKM+1]: hTROP2 >6.5, SLFN11 >3, 3 models",100%
same,Proportion of PDX models showing TGI of 75% or more,"[1]; log2[RPKM+1]: hTROP2 >6.5, SLFN11 All models, 15 models",47%
same,Proportion of PDX models showing TGI of 75% or more,"[1]; log2[RPKM+1]: hTROP2 >7.0, SLFN11 >1, 9 models",67%
same,Proportion of PDX models showing TGI of 75% or more,"[1]; log2[RPKM+1]: hTROP2 >7.0, SLFN11 >2, 6 models",83%
same,Proportion of PDX models showing TGI of 75% or more,"[1]; log2[RPKM+1]: hTROP2 >7.0, SLFN11 >3, 3 models",100%
same,Proportion of PDX models showing TGI of 75% or more,"[1]; log2[RPKM+1]: hTROP2 >7.0, SLFN11 All models, 11 models",55%
same,Proportion of PDX models showing TGI of 75% or more,"[1]; log2[RPKM+1]: hTROP2 >7.5, SLFN11 >1, 6 models",83%
same,Proportion of PDX models showing TGI of 75% or more,"[1]; log2[RPKM+1]: hTROP2 >7.5, SLFN11 >2, 4 models",100%
same,Proportion of PDX models showing TGI of 75% or more,"[1]; log2[RPKM+1]: hTROP2 >7.5, SLFN11 >3, 2 models",100%
same,Proportion of PDX models showing TGI of 75% or more,"[1]; log2[RPKM+1]: hTROP2 >7.5, SLFN11 All models, 8 models",63%
same,Proportion of PDX models showing TGI of 75% or more,"[1]; log2[RPKM+1]: hTROP2 >8.0, SLFN11 >1, 5 models",80%
same,Proportion of PDX models showing TGI of 75% or more,"[1]; log2[RPKM+1]: hTROP2 >8.0, SLFN11 >2, 3 models",100%
same,Proportion of PDX models showing TGI of 75% or more,"[1]; log2[RPKM+1]: hTROP2 >8.0, SLFN11 >3, 2 models",100%
same,Proportion of PDX models showing TGI of 75% or more,"[1]; log2[RPKM+1]: hTROP2 >8.0, SLFN11 All models, 7 models",57%
same,Proportion of PDX models showing TGI of 75% or more,"[1]; log2[RPKM+1]: hTROP2 All models, SLFN11 >1, 13 models",54%
same,Proportion of PDX models showing TGI of 75% or more,"[1]; log2[RPKM+1]: hTROP2 All models, SLFN11 >2, 9 models",67%
same,Proportion of PDX models showing TGI of 75% or more,"[1]; log2[RPKM+1]: hTROP2 All models, SLFN11 >3, 5 models",80%
same,Proportion of PDX models showing TGI of 75% or more,"[1]; log2[RPKM+1]: hTROP2 All models, SLFN11 All models, 19 models",47%
same,Prediction rate when TGI was 80% or more,[1]; log2[RPKM+1]: hTROP2 exceeded 7.5 and SLFN11 exceeded 1.0 and less than or equal to 2,~60%
same,Proportion of animal models showing TGI of 75% or more,"[1]; log2[RPKM+1]: hTROP2 exceeds 7.5 and SLFN11 exceeds 2.0, or hTROP2 exceeds 6.5 and SLFN11 exceeds 3.0",100%
same,Maximum tumor change rate (%),"[2]; Patient #1, 2 mg/kg intravenously once every three weeks",−7.14%
same,Maximum tumor change rate (%),"[2]; Patient #2, 2 mg/kg intravenously once every three weeks",−68.52%
same,Maximum tumor change rate (%),"[2]; Patient #3, 2 mg/kg intravenously once every three weeks",−4.76%
same,Maximum tumor change rate (%),"[2]; Patient #4, 2 mg/kg intravenously once every three weeks",−11.70%
same,Maximum tumor change rate (%),"[2]; Patient #5, 2 mg/kg intravenously once every three weeks",52.00%
same,Maximum tumor change rate (%),"[2]; Patient #6, 2 mg/kg intravenously once every three weeks",3.15%
same,Maximum tumor change rate (%),"[2]; Patient #7, 4 mg/kg intravenously once every three weeks",33.33%
same,Maximum tumor change rate (%),"[2]; Patient #8, 4 mg/kg intravenously once every three weeks",−53.13%
same,Maximum tumor change rate (%),"[2]; Patient #9, 6 mg/kg intravenously once every three weeks",−52.27%
same,Maximum tumor change rate (%),"[2]; Patient #10, 8 mg/kg intravenously once every three weeks",−3.47%
same,Maximum tumor change rate (%),"[2]; Patient #11, 8 mg/kg intravenously once every three weeks",−35.46%
same,Maximum tumor change rate (%),"[2]; Patient #12, 8 mg/kg intravenously once every three weeks",−63.64%
same,Proportion of patients showing a maximum tumor change rate of 0% or less,"[2]; log2[MNC+1]: hTROP2 >12, SLFN11 >11.5, 8 patients",88%
same,Proportion of patients showing a maximum tumor change rate of 0% or less,"[2]; log2[MNC+1]: hTROP2 >12, SLFN11 >12.5, 4 patients",100%
same,Proportion of patients showing a maximum tumor change rate of 0% or less,"[2]; log2[MNC+1]: hTROP2 >12, SLFN11 All, 9 patients",78%
same,Proportion of patients showing a maximum tumor change rate of 0% or less,"[2]; log2[MNC+1]: hTROP2 >14, SLFN11 >11.5, 5 patients",80%
same,Proportion of patients showing a maximum tumor change rate of 0% or less,"[2]; log2[MNC+1]: hTROP2 >14, SLFN11 >12.5, 2 patients",100%
same,Proportion of patients showing a maximum tumor change rate of 0% or less,"[2]; log2[MNC+1]: hTROP2 >14, SLFN11 All, 5 patients",80%
same,Proportion of patients showing a maximum tumor change rate of 0% or less,"[2]; log2[MNC+1]: hTROP2 All, SLFN11 >11.5, 11 patients",82%
same,Proportion of patients showing a maximum tumor change rate of 0% or less,"[2]; log2[MNC+1]: hTROP2 All, SLFN11 >12.5, 5 patients",100%
same,Proportion of patients showing a maximum tumor change rate of 0% or less,"[2]; log2[MNC+1]: hTROP2 All, SLFN11 All, 12 patients",75%
